Here are results for four proteins from patent publication US6635450.

The target in data set [1] is T1, Kip1 (28-79), 52-amino acid peptide with a C-terminal hexahistidine tag.
T1 chain: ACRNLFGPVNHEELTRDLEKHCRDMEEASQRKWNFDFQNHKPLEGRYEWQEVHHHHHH

In data set [2] the target is T2, p27 protein, the 27 kD cyclin E-Cdk2 binding protein of Mv1Lu mink epithelial cells (endogenous).
T2 chain: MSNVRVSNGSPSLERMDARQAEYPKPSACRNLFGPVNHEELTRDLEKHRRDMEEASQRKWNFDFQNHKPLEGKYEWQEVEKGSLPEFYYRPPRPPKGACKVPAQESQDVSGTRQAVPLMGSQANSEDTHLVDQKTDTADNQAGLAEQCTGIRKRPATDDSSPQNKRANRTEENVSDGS

Data set [3] deals with T3, recombinant mouse Kip1 with a C-terminal hexahistidine sequence (expressed in BL21(DE3) bacteria from pET21a).
T3 chain: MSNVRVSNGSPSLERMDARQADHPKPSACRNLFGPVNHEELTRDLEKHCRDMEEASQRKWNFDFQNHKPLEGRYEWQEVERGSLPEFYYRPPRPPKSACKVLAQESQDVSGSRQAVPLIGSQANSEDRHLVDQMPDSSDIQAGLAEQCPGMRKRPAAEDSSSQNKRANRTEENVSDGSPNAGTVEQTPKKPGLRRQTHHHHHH

B1: cyclin D2-Cdk4 complex (baculovirus produced, co-infected Sf9 cells) (protein)
chain 1: MELLCCEVDPVRRAVPDRNLLEDRVLQNLLTIEERYLPQCSYFKCVQKDIQPYMRRMVATWMLEVCEEQKCEEEVFPLAMNYLDRFLAGVPTPKTHLQLLGAVCMFLASKLKETIPLTAEKLCIYTDNSVKPQELLEWELVVLGKLKWNLAAVTPHDFIEHILRKLPQQKEKLSLIRKHAQTFIALCATDFKFAMYPPSMIATGSVGAAICGLQQDDEVNTLTCDALTELLAKITHTDVDCLKACQEQIEALLLNSLQQFRQEQHNAGSKSVEDPDQATTPTDVRDVDL
chain 2: MAATRYEPVAEIGVGAYGTVYKARDPHSGHFVALKSVRVPNGGAAGGGLPVSTVREVALLRRLEAFEHPNVVRLMDVCATSRTDRDIKVTLVFEHIDQDLRTYLDKAPPPGLPVETIKDLMRQFLSGLDFLHANCIVHRDLKPENILVTSNGTVKLADFGLARIYSYQMALTPVVVTLWYRAPEVLLQSTYATPVDMWSVGCIFAEMFRRKPLFCGNSEADQLGKIFDLIGLPPEDDWPREVSLPRGAFAPRGPRPVQSVVPEMEESGAQLLLEMLTFNPHKRISAFRALQHSYLHKEESDAE
Turning to B1, in data set [1], the Rb phosphorylation entry was “inhibited cyclin E-Cdk2 or cyclin D2:Cdk4 less effectively”. Besides, the “activation of Cdk2 by cyclin E in extracts (cyclin E-associated histone H1 kinase activity)” value in data set [2] is “Addition of cyclin D2-Cdk4 complexes, but neither subunit alone, to extracts from contact inhibited and TGF-β arrested cells allowed cyclin E to activate Cdk2 to a level equivalent to that observed in extracts from proliferating cells”. Besides, the “Rb kinase activity (phosphorylation of a GST-Rb fusion product)” value in data set [3] is “Addition of Kip1 to cyclin E-Cdk2, cyclin A-Cdk2 or cyclin D2-Cdk4 complexes inhibited their ability to phosphorylate a GST-Rb fusion product”.

B2: cyclin D3-Cdk4 complex (baculoviral, co-infected Sf9 cells) (protein)
chain 1: MELLCCEGTRHAPRAGPDPRLLGDQRVLQSLLRLEERYVPRASYFQCVQKEIKPHMRKMLAYWMLEVCEEQRCEEDVFPLAMNYLDRYLSCVPTRKAQLQLLGTVCLLLASKLRETTPLTIEKLCIYTDQAVAPWQLREWEVLVLGKLKWDLAAVIAHDFLALILHRLSLPSDRQALVKKHAQTFLALCATDYTFAMYPPSMIATGSIGAAVLGLGACSMSADELTELLAGITGTEVDCLRACQEQIEAALRESLREAAQTAPSPVPKAPRGSSSQGPSQTSTPTDVTAIHL
chain 2: B1 chain 2
Take B2: the “lowering of the cyclin E threshold for Cdk2 activation (cyclin E-associated histone H1 kinase activity)” value in data set [2] was “Equal amounts of cyclin Di-Cdk4 and cyclin D3-Cdk4 complexes, as estimated by immunoblotting of Sf9 lysates, were much less effective in lowering the cyclin E threshold for Cdk2 activation”.

B3: cyclin D1-Cdk4 complex (baculoviral, co-infected Sf9 cells) (protein)
chain 1: MEHQLLCCEVETIRRAYPDTNLLNDRVLRAMLKTEETCAPSVSYFKCVQKEIVPSMRKIVATWMLEVCEEQKCEEEVFPLAMNYLDRFLSLEPLKKSRLQLLGATCMFVASKMKETIPLTAEKLCIYTDNSIRPEELLQMELLLVNKLKWNLAAMTPHDFIEHFLSKMPEADENKQTIRKHAQTFVALCATDVKFISNPPSMVAAGSVVAAMQGLNLGSPNNFLSCYRTTHFLSRVIKCDPDCLRACQEQIEALLESSLRQAQQNVDPKATEEEGEVEEEAGLACTPTDVRDVDI
chain 2: B1 chain 2
Turning to B3, in data set [2], the “lowering of the cyclin E threshold for Cdk2 activation (cyclin E-associated histone H1 kinase activity)” value was “Equal amounts of cyclin Di-Cdk4 and cyclin D3-Cdk4 complexes, as estimated by immunoblotting of Sf9 lysates, were much less effective in lowering the cyclin E threshold for Cdk2 activation”.

B4: Cdk4 alone (baculoviral, Sf9 lysate) (protein)
chain: B1 chain 2
For the protein B4, the “activation of Cdk2 by cyclin E in extracts (cyclin E-associated histone H1 kinase activity)” value in data set [2] is “Addition of cyclin D2-Cdk4 complexes, but neither subunit alone, to extracts from contact inhibited and TGF-β arrested cells allowed cyclin E to activate Cdk2”.
